This experiment concerns the target Histone H3K4me3 peptide (Homo sapiens, UniProt P68431).

B1: ING4 PHD (protein)
chain: PNEPTYCLCHQVSYGEMIGCDNPDCSIEWFHFACVGLTTKPRGKWFCPRCSQERKK
B1 showed a Kd of 7.9 µM.

Source of the values: paper PMC2650391 (2009).
